Substitutions are numbered along the chain they refer to. Names and notes keep the numbering of the source. Like-named read-outs stand apart in the source and are kept apart here.
How the values were obtained:
[1] = target: T1, recombinant mouse IL-17A (SEQ ID NO: 83) (mouse, UniProt Q62386 26-158); assay: SPR (Biacore), captured antibody, antigen as analyte
T1 construct: also called mIL-17A; rmIL-17A
T1 sequence: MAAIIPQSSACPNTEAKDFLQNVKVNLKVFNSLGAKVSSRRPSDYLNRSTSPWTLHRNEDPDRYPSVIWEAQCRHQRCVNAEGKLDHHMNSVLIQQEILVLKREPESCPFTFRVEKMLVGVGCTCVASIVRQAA

[2] = target: T2, recombinant mouse IL-12 (R&D Systems Cat#419-ML-010/CF) (mouse, UniProt P43431 23-215; P43432 23-335); assay: ELISA, coated cytokine;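 further: antibodies incubated 3 h at room temperature on cytokine-coated plates, binding read out with alkaline phosphatase-conjugated anti-species IgG secondary antibodies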
T2 construct: coated at 0.5 µg/ml; also called mIL-12
T2 sequence (looked up) 1: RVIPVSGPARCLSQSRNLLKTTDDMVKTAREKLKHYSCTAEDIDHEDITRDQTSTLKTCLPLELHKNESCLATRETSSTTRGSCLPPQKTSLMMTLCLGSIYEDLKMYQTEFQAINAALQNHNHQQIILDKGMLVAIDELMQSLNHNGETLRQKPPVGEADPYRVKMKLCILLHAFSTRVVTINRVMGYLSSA
T2 sequence (looked up) 2: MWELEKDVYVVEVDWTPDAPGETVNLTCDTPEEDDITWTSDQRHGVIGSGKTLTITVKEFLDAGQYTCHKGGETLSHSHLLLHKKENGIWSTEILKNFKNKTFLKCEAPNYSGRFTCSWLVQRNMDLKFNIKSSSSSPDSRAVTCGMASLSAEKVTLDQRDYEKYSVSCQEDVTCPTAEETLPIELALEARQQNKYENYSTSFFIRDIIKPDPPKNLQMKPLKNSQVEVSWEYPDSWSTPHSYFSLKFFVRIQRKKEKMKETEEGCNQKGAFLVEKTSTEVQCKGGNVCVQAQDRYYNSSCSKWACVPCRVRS

[3] = target: T3, recombinant human IL-17A (SEQ ID NO: 78) (human, UniProt Q16552 24-155, limits assumed); assay: SPR (Biacore), captured antibody, antigen as analyte
T3 construct: homodimer; also called huIL-17A; hulL-17A
T3 sequence: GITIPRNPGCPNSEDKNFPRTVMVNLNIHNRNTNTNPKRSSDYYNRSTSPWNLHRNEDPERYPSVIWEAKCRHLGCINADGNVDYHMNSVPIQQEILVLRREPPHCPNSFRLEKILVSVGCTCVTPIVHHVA

[4] = target: T4, recombinant cynomolgus IL-17A (SEQ ID NO: 79) (cynomolgus monkey, UniProt Q16552 24-155 (human entry), limits assumed); assay: as above
T4 construct: also called cynoIL-17A; cyno IL-17A
T4 chain: T3 sequence with T3A, P8S, N34S, I77V, N78K, P104R

[5] = target: T5, recombinant rat IL-17A (SEQ ID NO: 85) (rat, UniProt Q61453 18-150); assay: as above
T5 construct: also called rratIL-17A; rIL-17A
T5 sequence: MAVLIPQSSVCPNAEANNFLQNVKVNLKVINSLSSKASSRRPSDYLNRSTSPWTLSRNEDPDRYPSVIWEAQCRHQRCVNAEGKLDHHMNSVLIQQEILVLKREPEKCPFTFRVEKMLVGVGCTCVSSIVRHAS

[6] = target: T6, recombinant mouse IL-17A/F (R&D Systems Cat#5390-IL) (mouse, UniProt Q62386 26-158; Q7TNI7 29-161, limits assumed); assay: as above
T6 construct: bought heterodimer; also called mIL-17A/F; rmIL-17A/F
T6 sequence (looked up) 1: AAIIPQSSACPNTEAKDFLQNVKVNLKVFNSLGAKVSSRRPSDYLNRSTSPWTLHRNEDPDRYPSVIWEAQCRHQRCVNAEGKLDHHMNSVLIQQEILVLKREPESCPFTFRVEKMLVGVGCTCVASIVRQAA
T6 sequence (looked up) 2: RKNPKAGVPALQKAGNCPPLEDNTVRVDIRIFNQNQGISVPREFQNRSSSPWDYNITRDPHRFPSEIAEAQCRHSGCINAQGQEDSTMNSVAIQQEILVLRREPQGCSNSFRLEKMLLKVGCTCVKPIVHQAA

[7] = target: T7, recombinant human IL-17A/F heterodimer (human, UniProt Q16552 24-155; Q96PD4 31-163, limits assumed); assay: as above
T7 construct: heterodimer of an IL-17A subunit and an IL-17F subunit; also called huIL-17A/F; rhuIL-17A/F
T7 sequence (looked up) 1: T3 sequence
T7 sequence (looked up) 2: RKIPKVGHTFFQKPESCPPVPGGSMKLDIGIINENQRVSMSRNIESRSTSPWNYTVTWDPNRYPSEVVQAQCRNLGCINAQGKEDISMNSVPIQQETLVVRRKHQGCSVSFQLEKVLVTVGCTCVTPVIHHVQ

[8] = target: T1, recombinant mouse IL-17A (SEQ ID NO: 83); assay: as above; remark: listed apart in the source
[9] = target: T8, recombinant human IL-23 (R&D Systems Cat#1290-IL-010/CF) (human, UniProt Q9NPF7 20-189; P29460 23-328); assay: ELISA, coated cytokine;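 further: antibodies incubated 3 h at room temperature on cytokine-coated plates, binding read out with alkaline phosphatase-conjugated anti-species IgG secondary antibodies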
T8 construct: also called huIL-23
T8 sequence (looked up) 1: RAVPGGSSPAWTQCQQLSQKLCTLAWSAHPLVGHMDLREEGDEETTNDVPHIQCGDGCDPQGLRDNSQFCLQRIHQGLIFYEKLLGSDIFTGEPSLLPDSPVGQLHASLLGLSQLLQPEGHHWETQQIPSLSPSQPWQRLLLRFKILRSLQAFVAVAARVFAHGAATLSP
T8 sequence (looked up) 2: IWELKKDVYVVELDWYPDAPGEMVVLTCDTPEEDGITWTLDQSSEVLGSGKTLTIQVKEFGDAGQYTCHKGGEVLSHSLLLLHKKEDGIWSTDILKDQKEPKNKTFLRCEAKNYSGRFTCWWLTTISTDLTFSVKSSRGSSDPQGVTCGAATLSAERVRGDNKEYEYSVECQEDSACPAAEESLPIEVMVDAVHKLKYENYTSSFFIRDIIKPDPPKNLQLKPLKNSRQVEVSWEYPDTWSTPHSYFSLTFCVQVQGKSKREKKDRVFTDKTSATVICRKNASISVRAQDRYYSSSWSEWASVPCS

B1: XAB4 (antibody, human IgG1, kappa, V domains shown)
VH: EVQLVESGGDLVQPGGSLRLSCAASGFTFSSYWMSWVRQAPGKGLEWVANIKQDGSEKYYVDSVKGRFTISRDNAKNSLYLQMNSLRAEDTAVYYCARDRGSLYYWGQGTLVTVSS
VL: AIQLTQSPSSLSASVGDRVTITCRPSQGINWELAWYQQKPGKAPKLLIYDASSLEQGVPSRFSGSGSGTDFTLTISSLQPEDFATYYCQQFNSYPLTFGGGTKVEIKR
notes: also called MB435 N56Q
- Kd [1]: 0.16 nM
- binding result [2]: no binding (tested: 10 µg/ml)

B2: XAB1 (antibody, human IgG1, kappa, V domains shown)
VH: B1 VH
VL: B1 VL with N30I, W31S, E32A, Q56N
notes: human IgG1/kappa monoclonal antibody; also called parental XAB1; XAB1 IgG
- Kd [3]: 0.0403 nM
- koff [3]: 9.39e-05 s⁻¹
- Kd [4]: 0.526 nM
- koff [4]: 0.000113 s⁻¹
- Kd [5]: 0.301 nM
- koff [5]: 0.000164 s⁻¹
- Kd [6]: 5.09 nM
- koff [6]: 0.000955 s⁻¹
- Kd [7]: 1.48 nM
- koff [7]: 0.00134 s⁻¹
- Kd [8]: 0.353 nM
- koff [8]: 0.000143 s⁻¹
- binding result [9]: no binding (tested: 10 µg/ml)

— patent US20180194839A1 (Novartis, published 2018)
